Experimental data reported in US20250042994A1 (HAINAN SIMCERE ZAIMING PHARMACEUTICAL, published 2025).

T1: human CD19 on Raji cells (human, UniProt P15391 20-556)
T1 construct: whole, on cells
T1 sequence (looked up): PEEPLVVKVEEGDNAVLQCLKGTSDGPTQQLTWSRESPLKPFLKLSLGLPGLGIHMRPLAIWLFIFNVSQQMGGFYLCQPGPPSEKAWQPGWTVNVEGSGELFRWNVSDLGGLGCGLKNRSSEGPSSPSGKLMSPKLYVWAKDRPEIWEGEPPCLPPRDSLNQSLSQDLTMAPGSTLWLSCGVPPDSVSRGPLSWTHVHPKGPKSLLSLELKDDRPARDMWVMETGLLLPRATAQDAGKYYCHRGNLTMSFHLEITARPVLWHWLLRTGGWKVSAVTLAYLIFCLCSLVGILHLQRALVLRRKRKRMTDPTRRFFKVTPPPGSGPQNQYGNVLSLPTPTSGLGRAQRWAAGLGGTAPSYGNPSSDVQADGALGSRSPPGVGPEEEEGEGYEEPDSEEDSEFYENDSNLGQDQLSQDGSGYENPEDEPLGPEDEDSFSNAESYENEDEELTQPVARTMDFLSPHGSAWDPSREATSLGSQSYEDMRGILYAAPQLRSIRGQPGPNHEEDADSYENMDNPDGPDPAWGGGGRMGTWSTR

T2: Human CD19-his protein (human, UniProt P15391 20-291)
T2 construct: bought protein; also called recombinant human CD19-His; CD19 full-length protein; not shown: His tag
T2 sequence (looked up): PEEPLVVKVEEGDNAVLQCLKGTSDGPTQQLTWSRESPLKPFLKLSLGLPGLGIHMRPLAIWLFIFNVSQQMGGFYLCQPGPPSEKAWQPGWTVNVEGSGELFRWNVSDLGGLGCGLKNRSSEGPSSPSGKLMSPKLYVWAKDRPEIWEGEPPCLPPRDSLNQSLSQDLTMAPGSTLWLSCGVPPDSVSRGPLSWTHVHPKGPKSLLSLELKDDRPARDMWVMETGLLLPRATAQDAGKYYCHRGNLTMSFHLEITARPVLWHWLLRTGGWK

T3: human CD19 on CHO-K1-human CD19 cells (human, UniProt P15391 20-556)
T3 construct: whole, on cells; also called CHO-K1-human CD19-2C8
T3 sequence (looked up): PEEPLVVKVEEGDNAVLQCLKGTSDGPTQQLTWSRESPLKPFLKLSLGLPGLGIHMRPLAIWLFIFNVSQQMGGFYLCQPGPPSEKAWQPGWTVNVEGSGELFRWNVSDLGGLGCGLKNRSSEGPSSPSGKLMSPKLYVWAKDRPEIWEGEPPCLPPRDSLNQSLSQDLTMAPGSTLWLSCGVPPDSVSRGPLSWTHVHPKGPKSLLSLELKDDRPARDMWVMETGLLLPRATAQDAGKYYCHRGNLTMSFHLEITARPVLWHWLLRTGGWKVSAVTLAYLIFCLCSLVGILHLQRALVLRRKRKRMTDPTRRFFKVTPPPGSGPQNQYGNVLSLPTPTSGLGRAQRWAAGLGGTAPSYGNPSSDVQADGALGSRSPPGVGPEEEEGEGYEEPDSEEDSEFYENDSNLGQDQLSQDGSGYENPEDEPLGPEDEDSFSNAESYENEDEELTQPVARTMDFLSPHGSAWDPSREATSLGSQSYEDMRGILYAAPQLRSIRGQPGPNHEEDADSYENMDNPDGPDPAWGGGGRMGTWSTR

T4: human CD19 exon1-3-His tag protein (human, UniProt P15391 20-186, limits assumed)
T4 construct: membrane-distal part of the extracellular region, made in HEK293E cells; not shown: His tag
T4 sequence (looked up): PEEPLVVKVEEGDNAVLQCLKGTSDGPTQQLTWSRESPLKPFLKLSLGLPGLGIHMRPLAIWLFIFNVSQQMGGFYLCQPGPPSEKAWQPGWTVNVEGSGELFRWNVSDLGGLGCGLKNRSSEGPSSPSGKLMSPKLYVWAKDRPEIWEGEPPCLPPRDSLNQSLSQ


Tests used:
[1] = biological target: T1, human CD19 on Raji cells; assay: FACS on Raji cells
Method: (§1) After the digestion was terminated, the cells were washed 2 times with a PBS buffer; and for suspension cell Raji, the supernatant of the medium was discarded by directly centrifugation, and the cell pellet was washed 2 times with PBS. After counting the cells in the previous step, the cell pellet was resuspended with [PBS+2% (w/w) BSA] blocking solution to 2×10⁶ cells/ml, and added to a 96-well FACS reaction plate at 50 μl/well, and then the sample to be tested was added at 50 μl/well, and incubated on ice for 2 h. The obtained mixture was centrifuged and washed 3 times with a PBS buffer. […] The obtained mixture was centrifuged and washed 5 times with a PBS buffer, and FACS (FACS Canto™, purchased from BD Company) was used for detection and result analysis. Data analysis was performed by software (FlowJo) to obtain the mean fluorescence intensity (MFI) of the cells. And then software (GraphPad Prism8) was used for analysis, data fitting, and EC50 value calculation. […] The same method was used to detect the binding of the chimeric antibodies to endogenous CD19-negative cells, MoLT4 cells (purchased from ATCC, CRL-1582), and CHO-K1 cells.

[2] = biological target: T2, Human CD19-his protein; assay: ELISA, coated human CD19-His
Method: Human CD19-his protein (purchased from ACROBiosystems, catalog number: CD9-H52H2) was diluted with PBS to a final concentration of 4 μg/mL, and then added to a 96-well ELISA plate at 100 μl/well. The plate was sealed with a plastic film and incubated overnight at 4° C., the plate was washed 2 times with PBS the next day, and then a blocking solution [PBS+2% (w/w) BSA] was added for blocking at room temperature for 2 h. The blocking solution was poured off, and 100 nM gradiently diluted CD19 chimeric antibody or control antibody was added at 50 μl/well. After incubation at 37° C. for 2 h, the plate was washed 3 times with PBS. […] TMB substrate was added at 50 μl/well, and incubated at room temperature for 10 min, and then a stop solution (1.0 N HCl) was added at 50 μl/well. The OD450 nm values were read by an ELISA microplate reader (Multimode Plate Reader, EnSight, purchased from Perkin Elmer).

[3] = biological target: T3, human CD19 on CHO-K1-human CD19 cells; assay: FACS on CHO-K1-human CD19 cells
Method: as §1

[4] = biological target: T2, Human CD19-his protein; assay: ELISA on coated human CD19-His
[5] = biological target: T4, human CD19 exon1-3-His tag protein; assay: ELISA, coated human CD19 exon 1-3-His
[6] = biological target: T2, Human CD19-his protein; assay: SPR Biacore, method of example 7.1, human CD19-His
Method: A sample buffer and a running buffer were HBS-EP+ (10 mM HEPES, 150 mM NaCl, 3 mM EDTA and 0.05% surfactant P20) (GE Healthcare; BR-1006-69). The flow-through cell was set to 25° C. The sample block was set to 16° C. Both were pretreated with the running buffer. In each cycle, an antibody to be detected was first captured with a Protein A chip, and then a single concentration of CD19 antigen protein was injected. The binding and dissociation processes of the antibody and the antigen protein were recorded, and finally Glycine pH 1.5 (GE Healthcare; BR-1003-54) was used to complete chip regeneration. The binding was measured by injecting different concentrations of recombinant human CD19-His proteins in a solution for 240 s with a flow rate of 30 μl/min. The concentration started from 200 nM (see the detailed results for the actual concentration in the test) and was diluted at 1:1, making a total of 5 concentrations. The dissociation phase was monitored for up to 600 s and was triggered by switching from sample solution to running buffer. The surface was regenerated by washing with a 10 mM glycine solution (pH 1.5) for 30 s at a flow rate of 30 μl/min. Bulk refractive index difference was corrected by subtracting the response obtained from the goat anti-human Fc surface. Blank injection was also subtracted (=double reference). For calculation of apparent KD and other kinetic parameters, Langmuir 1:1 model was used.
SPR (biacore) detection and data analysis were performed according to the method in example 7.1.

| EC50 [1] | Maximum mean fluorescence intensity [1] | OD450 at 0.0001 nM [2] | OD450 at 0.001 nM [2] | OD450 at 0.01 nM [2] | OD450 at 0.10 nM [2] | OD450 at 1.00 nM [2] | OD450 at 10 nM [2] | OD450 at 100 nM [2] | EC50 [3] | Maximum mean fluorescence intensity [3] | EC50 (read off the curve) [4] | OD450 at 0.0001 nM [5] | OD450 at 0.001 nM [5] | OD450 at 0.01 nM [5] | OD450 at 0.10 nM [5] | OD450 at 1.00 nM [5] | OD450 at 10 nM [5] | OD450 at 100 nM [5] | Kd [6] | Binder | other results |
| --- | --- | --- | --- | --- | --- | --- | --- | --- | --- | --- | --- | --- | --- | --- | --- | --- | --- | --- | --- | --- | --- |
| 0.44 nM | 31600 MFI | 0.1 OD450 | 0.13 OD450 | 0.39 OD450 | 1.56 OD450 | 2.51 OD450 | 2.55 OD450 | 2.67 OD450 | 1.19 nM | 54700 MFI | ~0.05 nM | 0.05 OD450 | 0.05 OD450 | 0.05 OD450 | 0.05 OD450 | 0.05 OD450 | 0.05 OD450 | 0.08 OD450 | 0.000205 nM | F3.121.4-L1H4 (antibody, mouse IgG1, kappa, humanized antibody of F3.121.4, VL1+VH4, murine IgG1 constant regions) heavy: EVQLQQSGAEVKKPGASVKVSCKASGYTFTNYWMHWVRQRPGQGLEWMGEIDPSDNYANYNQEFQGRVTITVDKSASTAYMELSSLRSEDTAVYYCARHDGYFGALDYWGQGTTVTVSSAKTTPPSVYPLAPGSAAQTNSMVTLGCLVKGYFPEPVTVTWNSGSLSSGVHTFPAVLQSDLYTLSSSVTVPSSTWPSETVTCNVAHPASSTKVDKKIVPRDCGCKPCICTVPEVSSVFIFPPKPKDVLTITLTPKVTCVVVDISKDDPEVQFSWFVDDVEVHTAQTQPREEQFNSTFRSVSELPIMHQDWLNGKEFKCRVNSAAFPAPIEKTISKTKGRPKAPQVYTIPPPKEQMAKDKVSLTCMITDFFPEDITVEWQWNGQPAENYKNTQPIMDTDGSYFVYSKLNVQKSNWEAGNTFTCSVLHEGLHNHHTEKSLSHSPGK light: EIVLTQSPATLSLSPGERATLSCSASSSISSNYLHWYQQKPGQAPRFLIYRTSNLASGIPARFSGSGSGTDFTLTISSLEPEDFAVYYCQQASSIPRMFTFGQGTKLEIKRADAAPTVSIFPPSSEQLTSGGASVVCFLNNFYPKDINVKWKIDGSERQNGVLNSWTDQDSKDSTYSMSSTLTLTKDEYERHNSYTCEATHKTSTSPIVKSFNRNEC | koff [6]: 1.86e-08 s⁻¹; kon [6]: 91100 M⁻¹ s⁻¹ |
| 0.41 nM | 30100 MFI | 0.1 OD450 | 0.13 OD450 | 0.37 OD450 | 1.51 OD450 | 2.42 OD450 | 2.41 OD450 | 2.55 OD450 | 1.14 nM | 52200 MFI | ~0.05 nM | 0.05 OD450 | 0.05 OD450 | 0.05 OD450 | 0.05 OD450 | 0.05 OD450 | 0.05 OD450 | 0.09 OD450 | 1.46 nM | F3.121.4-L2H2 (antibody, mouse IgG1, kappa, V domains shown, humanized antibody of F3.121.4, VL2+VH2, murine IgG1 constant regions) VH: EVQLVQSGAEVKKPGASVKVSCKASGYTFTNYWMHWVRQAPGQGLEWMGEIDPSDNYANYNQEFQGRVTITVDKSASTAYMELSSLRSEDTAVYYCARHDGYFGALDYWGQGTTVTVSS VL: EIVLTQSPDFQSVTPKEKVTITCSASSSISSNYLHWYQQKPDQSPKLLIKRTSNLASGVPSRFSGSGSGTDFTLTINSLEAEDAATYYCQQASSIPRMFTFGQGTKLEIKR | koff [6]: 0.000195 s⁻¹; kon [6]: 134000 M⁻¹ s⁻¹ |
| 0.38 nM | 29100 MFI | 0.1 OD450 | 0.13 OD450 | 0.38 OD450 | 1.52 OD450 | 2.42 OD450 | 2.45 OD450 | 2.57 OD450 | 1.08 nM | 53200 MFI | ~0.05 nM | 0.05 OD450 | 0.05 OD450 | 0.05 OD450 | 0.05 OD450 | 0.05 OD450 | 0.05 OD450 | 0.09 OD450 | 1.43 nM | F3.121.4-L2H1 (antibody, mouse IgG1, kappa, V domains shown, humanized antibody of F3.121.4, VL2+VH1, murine IgG1 constant regions) VH: EVQLVQSGAEVKKPGASVKVSCKASGYTFTNYWMHWVRQAPGQRLEWMGEIDPSDNYANYNQEFQGRVTITVDKSASTAYMELSSLRSEDTAVYYCARHDGYFGALDYWGQGTTVTVSS VL: EIVLTQSPDFQSVTPKEKVTITCSASSSISSNYLHWYQQKPDQSPKLLIKRTSNLASGVPSRFSGSGSGTDFTLTINSLEAEDAATYYCQQASSIPRMFTFGQGTKLEIKR | koff [6]: 0.000186 s⁻¹; kon [6]: 130000 M⁻¹ s⁻¹ |
